Fewer inactive variants are shown than the library holds.
Experiments:
biotinyl-Trp-oxazolone = experiment: self-aminoacylation, catalytic enhancement (BWO) (fold over background); higher = more active; k-Seq, kA / k0A0; sequences stand for … in GGGAAUGGAUCCACAUCUACGAAUUC…UUCACUGCAGACUUGACGAAGCUG
Method in brief: (§1)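 The uncatalyzed rate is the low-activity peak of a bimodal Gaussian fit, and catalytic enhancement is median kA divided by it. The kA values came from pseudo-first-order fits, with 1000 bootstraps, of per-sequence fraction reacted measured by streptavidin capture, triplicate qPCR and Illumina sequencing. Mutagenized RNA pools with a 21-nt variable region (0.43 μM) were reacted with each biotinyl-aminoacyl-oxazolone at 2–1250 μM in 50 μL HEPES/NaCl/KCl/MgCl2/CaCl2 buffer with 5% acetonitrile, pH 6.9–7.0, for 90 minutes at room temperature.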

biotinyl-Leu-oxazolone = experiment: self-aminoacylation, catalytic enhancement (BLO) (fold over background); higher = more active; k-Seq, kA / k0A0; sequences stand for … in GGGAAUGGAUCCACAUCUACGAAUUC…UUCACUGCAGACUUGACGAAGCUG
Method in brief: as §1

biotinyl-Met-oxazolone = experiment: self-aminoacylation, catalytic enhancement (BMO) (fold over background); higher = more active; k-Seq, kA / k0A0; sequences stand for … in GGGAAUGGAUCCACAUCUACGAAUUC…UUCACUGCAGACUUGACGAAGCUG
Method in brief: as §1

biotinyl-Val-oxazolone = experiment: self-aminoacylation, catalytic enhancement (BVO) (fold over background); higher = more active; k-Seq, kA / k0A0; sequences stand for … in GGGAAUGGAUCCACAUCUACGAAUUC…UUCACUGCAGACUUGACGAAGCUG
Method in brief: as §1

biotinyl-Ile-oxazolone = experiment: self-aminoacylation, catalytic enhancement (BIO) (fold over background); higher = more active; k-Seq, kA / k0A0; sequences stand for … in GGGAAUGGAUCCACAUCUACGAAUUC…UUCACUGCAGACUUGACGAAGCUG
Method in brief: as §1

biotinyl-Phe-oxazolone = experiment: self-aminoacylation, catalytic enhancement (BFO) (fold over background); higher = more active; k-Seq, kA / k0A0; sequences stand for … in GGGAAUGGAUCCACAUCUACGAAUUC…UUCACUGCAGACUUGACGAAGCUG
Method in brief: as §1

Row | Sequence | self-aminoacylation (biotinyl-Trp-oxazolone) | self-aminoacylation (biotinyl-Leu-oxazolone) | self-aminoacylation (biotinyl-Met-oxazolone) | self-aminoacylation (biotinyl-Val-oxazolone) | self-aminoacylation (biotinyl-Ile-oxazolone) | self-aminoacylation (biotinyl-Phe-oxazolone)
1 | AGUCACAUAGGUCAUCGGGUG [Fam2.2 aminoacylation ribozyme variant] | 9.51 | 10.2 | 8.54 | 6.38 | 7.04 | 63.6
2 | AGUCACCAAGGUCAUCGGGUG [Fam2.2 aminoacylation ribozyme variant] | 7.87 | 7.67 | 6.59 | 4.7 | 4.38 | 51.2
3 | AGUCACCUAGGUCAUAGGGUG [Fam2.2 aminoacylation ribozyme variant] | 2.56 | 2.56 | 3.12 | 2.17 | 2.18 | 9.22
4 | AGUCACCUAGGUCAUCGAGUG [Fam2.2 aminoacylation ribozyme variant] | 4.19 | 5.93 | 4.24 | 3.16 | 3.67 | 6.67
5 | AGUCACCUAGGUCAUCGGGUC [Fam2.2 aminoacylation ribozyme variant] | 1.69 | 1.82 | 2.13 | 1.7 | 1.46 | 4.41
6 | AGUCACCUAGGUCAUCGGGUG [Fam2.2 aminoacylation ribozyme variant] | 7.24 | 6.74 | 6.24 | 4.99 | 4.81 | 38.1
7 | AGUCACCUAGGUCAUGGGGUG [Fam2.2 aminoacylation ribozyme variant] | 5.76 | 5.97 | 5.58 | 4.11 | 3.57 | 29.2
8 | AGUCACCUAGGUCAUUGGGUG [Fam2.2 aminoacylation ribozyme variant] | 3.42 | 4.04 | 4.22 | 3.26 | 3.03 | 25.8
9 | AGUCACCUAGGUCCUCGGGUG [Fam2.2 aminoacylation ribozyme variant] | 9.19 | 6.54 | 6.34 | 4.64 | 5.66 | 37.5
10 | AGUCACCUAGUUCAUCGGGUG [Fam2.2 aminoacylation ribozyme variant] | 5.16 | 4.05 | 4.14 | 3.29 | 3.71 | 24
11 | AGUCACCUCGGUCAUCGGGUG [Fam2.2 aminoacylation ribozyme variant] | 7.18 | 6.23 | 6.27 | 4.18 | 4.47 | 44.4
12 | AGUCAGCUAGGUCAUCGGGUG [Fam2.2 aminoacylation ribozyme variant] | 9.92 | 6.1 | 5.84 | 5.51 | 5.42 | 58.2
13 | AGUCAUCUAGGUCAUCGGGUG [Fam2.2 aminoacylation ribozyme variant] | 9.27 | 7.92 | 7.32 | 5.47 | 5.24 | 53.9
14 | AGUCCCCUGGUCAUCGAGUGA [Fam2.1 aminoacylation ribozyme variant] | 7.41 | 6.55 | 6.67 | 4.13 | 3.3 | 42.6
15 | AGUGACCUAGGUCAUCGGGUG [Fam2.2 aminoacylation ribozyme variant] | 4.64 | 4.73 | 3.53 | 3.69 | 3.48 | 25.7
16 | AGUUACCUAGGUCAUCGGGUG [Fam2.2 aminoacylation ribozyme variant] | 6.91 | 6.47 | 5.38 | 4.62 | 4.59 | 40.1
17 | AUAACCCUGGCCAUCGAGUGA [Fam2.1 aminoacylation ribozyme variant] | 3.57 | 2.71 | 4.48 | 2.09 | 3.35 | 11.4
18 | AUAACCCUGGUCAACGAGUGA [Fam2.1 aminoacylation ribozyme variant] | 6.89 | 5.91 | 6.45 | 3.33 | 3.32 | 31.1
19 | AUAACCCUGGUCAUCGAGAGA [Fam2.1 aminoacylation ribozyme variant] | 0.804 | 0.822 | 0.604 | 0.839 | 1.01 | 1.12
20 | AUAACCCUGGUCAUCGAGGGA [Fam2.1 aminoacylation ribozyme variant] | 0.626 | 2.12 | 1.45 | 1.43 | 1.52 | 2.14
21 | AUAACCCUGGUCAUCGAGUCA [Fam2.1 aminoacylation ribozyme variant] | 0.624 | 0.781 | 0.958 | 0.806 | 0.774 | 0.721
22 | AUAACCCUGGUCAUCGAGUGU [Fam2.1 aminoacylation ribozyme variant] | 16.4 | 17.9 | 20 | 7.4 | 6.98 | 69.6
23 | AUAACCCUGGUCUUCGAGUGA [Fam2.1 aminoacylation ribozyme variant] | 6.89 | 5.23 | 5.08 | 2.71 | 2.9 | 17.7
24 | AUAACGCUGGUCAUCGAGUGA [Fam2.1 aminoacylation ribozyme variant] | 5.24 | 4.06 | 4.6 | 2.76 | 3.06 | 15
25 | AUACACCGAGGUCAUCGGGUG [Fam2.2 aminoacylation ribozyme variant] | 4.15 | 4.55 | 5.37 | 4.34 | 4.24 | 28.8
26 | AUACACCUAGCUCAUCGGGUG [Fam2.2 aminoacylation ribozyme variant] | 1.24 | 1.91 | 2.23 | 2.21 | 1.9 | 4.61

Row | Sequence | self-aminoacylation (biotinyl-Trp-oxazolone) | self-aminoacylation (biotinyl-Leu-oxazolone) | self-aminoacylation (biotinyl-Met-oxazolone) | self-aminoacylation (biotinyl-Val-oxazolone) | self-aminoacylation (biotinyl-Ile-oxazolone) | self-aminoacylation (biotinyl-Phe-oxazolone)
27 | AUACACCUAGGUAAUCGGGUG [Fam2.2 aminoacylation ribozyme variant] | 3.83 | 2.07 | 2.84 | 2.18 | 1.93 | 12.3
28 | AUACACCUAGGUCACCGGGUG [Fam2.2 aminoacylation ribozyme variant] | 3.79 | 3.78 | 3.09 | 3.23 | 3.29 | 23.3
29 | AUACACCUAGGUUAUCGGGUG [Fam2.2 aminoacylation ribozyme variant] | 4.77 | 2.99 | 3.19 | 2.95 | 2.73 | 19.1
30 | AUACACUUCAAGCAAUCGGUC [Fam1B.1 aminoacylation ribozyme variant] | 5.86 | 0.979 | 0.804 | 0.96 | 1.05 | 9.74
31 | AUACCUCAAACAAUCGGUCUG [Fam1A.1 aminoacylation ribozyme variant] | 1.52 | 0.934 | 0.919 | 0.92 | 0.977 | 4.92
32 | AUACUCCUAGGUCAUCGGGUG [Fam2.2 aminoacylation ribozyme variant] | 3.91 | 5.38 | 3.69 | 2.98 | 2.97 | 27.5
33 | AUACUUCAAACAAUCCGUCUG [Fam1A.1 aminoacylation ribozyme variant] | 1.17 | 1.09 | 1.05 | 0.918 | 1.04 | 1.42
34 | AUACUUCAAACAAUCGGUGUG [Fam1A.1 aminoacylation ribozyme variant] | 2.68 | 1.25 | 1.22 | 0.94 | 1.05 | 3.81
35 | AUACUUCAAACAAUUGGUCUG [Fam1A.1 aminoacylation ribozyme variant] | 1.16 | 0.956 | 0.903 | 1.04 | 1.19 | 1.16
36 | AUACUUCAAACAGUCGGUCUG [Fam1A.1 aminoacylation ribozyme variant] | 0.831 | 0.996 | 0.965 | 0.699 | 0.876 | 0.584
37 | AUACUUCAUACAAUCGGUCUG [Fam1A.1 aminoacylation ribozyme variant] | 0.952 | 0.874 | 0.981 | 0.939 | 1.02 | 1.1
38 | AUAUUUCAAACAAUCGGUCUG [Fam1A.1 aminoacylation ribozyme variant] | 3.15 | 0.891 | 0.844 | 0.834 | 0.897 | 5.45
39 | AUAUUUGCUAAUAGUCGCAAG [Fam3.1 aminoacylation ribozyme variant] | 1.75 | 1.37 | 1.35 | 1.49 | 1.57 | 2.04
40 | AUCACCCAGGUCAUCGAGUGA [Fam2.1 aminoacylation ribozyme variant] | 8.46 | 8.69 | 7.75 | 4.61 | 4.04 | 30.4
41 | AUCACCCUAGUCAUCGAGUGA [Fam2.1 aminoacylation ribozyme variant] | 7.4 | 8.78 | 8.04 | 4.27 | 4.35 | 49.7
42 | AUCACCCUCGUCAUCGAGUGA [Fam2.1 aminoacylation ribozyme variant] | 3.31 | 3.13 | 3.54 | 2.36 | 2.12 | 19.7
43 | AUCACCCUGGGCAUCGAGUGA [Fam2.1 aminoacylation ribozyme variant] | 11.2 | 13.1 | 10.6 | 5.3 | 4.64 | 69.7
44 | AUCACCCUGGUCAUCGAGUAA [Fam2.1 aminoacylation ribozyme variant] | 2.89 | 3.44 | 3.93 | 2.21 | 2 | 6.38
45 | AUCACCCUGGUCAUCGAGUGA [Fam2.1 aminoacylation ribozyme variant] | 28.4 | 27 | 27.8 | 11.3 | 10.6 | 154
46 | AUCACCCUGGUCAUCGAGUGU [Fam2.1 aminoacylation ribozyme variant] | 20.2 | 21.5 | 22.5 | 8.64 | 7.23 | 94.9
47 | AUCACCCUGGUCAUCGGGUGA [Fam2.1 aminoacylation ribozyme variant] | 14.1 | 9.48 | 9.05 | 5.27 | 5.17 | 33.4
48 | AUCACCCUGGUCAUCGUGUGA [Fam2.1 aminoacylation ribozyme variant] | 4.97 | 5.08 | 3.98 | 2.31 | 1.81 | 34.7
49 | AUCACCCUGGUCAUCUAGUGA [Fam2.1 aminoacylation ribozyme variant] | 12.9 | 11.7 | 12.8 | 5.63 | 5.3 | 85
50 | AUCACCCUGGUCCUCGAGUGA [Fam2.1 aminoacylation ribozyme variant] | 7.28 | 8.29 | 6.62 | 4.54 | 4.01 | 51.6
51 | AUCACCCUGGUCGUCGAGUGA [Fam2.1 aminoacylation ribozyme variant] | 1.41 | 2.67 | 1.39 | 1.31 | 1.24 | 5.78
